From the supplement of paper PMC10567573

B1: ZNF511 (parent)
chain: YEHHYHTLHGNVCSFCKRAFPSGH
B2: ZER1 (parent)
chain: PILRLLPQGISPVSQHWATWALYN

Variants of: B1
Experiment: protein stability index of a GFP-peptide fusion (GPS, HEK-293T) (PSI 1-6); higher = more stable
Conditions: c terminus: a fixed tail appended
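Further: lentivirally expressed fusions sorted by FACS into six bins by GFP to DsRed ratio, PSI derived from sequencing read proportions per bin multiplied by bin number.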

First: YEHHYHTLHGNVCSFCKRAFPSGK [H24K]
Second: YESHYHTLHGNVCSFCKRAFPSGH [H3S]
The protein stability index of the first is lower: 1.57 for the first, 2.6 for the second.

Going from HEHHYHTLHGNVCSFCKRAFPSGH [Y1H] to YEHHYHTLHGNVCSFCKIAFPSGH [R18I], the protein stability index falls from 2.81 to 1.6.

First: YEHHYFTLHGNVCSFCKRAFPSGH [H6F]
Second: YEHHAHTLHGNVCSFCKRAFPSGH [Y5A]
The protein stability index of the first is lower: 1.48 for the first, 2.81 for the second.

First: YEHHYHMLHGNVCSFCKRAFPSGH [T7M]
Second: YEHHYHTLHGNVCSFEKRAFPSGH [C16E]
The protein stability index of the first is higher: 2.86 for the first, 2.5 for the second.

First: YEHHYKTLHGNVCSFCKRAFPSGH [H6K]
Second: YEHHYHTLHGNVCSFCPRAFPSGH [K17P]
The protein stability index of the first is lower: 1.53 for the first, 1.78 for the second.

Compared with YEHGYHTLHGNVCSFCKRAFPSGH [H4G], YEHLYHTLHGNVCSFCKRAFPSGH [H4L] is higher in protein stability index: 2.05 for the first, 2.07 for the second.

Compared with YEHHYHTLHRNVCSFCKRAFPSGH [G10R], YEHHYHTLHVNVCSFCKRAFPSGH [G10V] is higher in protein stability index: 1.59 for the first, 1.87 for the second.

Going from YEHHYHTLHGNMCSFCKRAFPSGH [V12M] to YEHHYHTIHGNVCSFCKRAFPSGH [L8I], the protein stability index rises from 2.17 to 2.44.

Compared with KEHHYHTLHGNVCSFCKRAFPSGH [Y1K], YEHHYHTLHGNVCSFCKTAFPSGH [R18T] is lower in protein stability index: 3.02 for the first, 2.29 for the second.

Compared with YEHHYHTLHGNVCVFCKRAFPSGH [S14V], YEHHYHTLHGNLCSFCKRAFPSGH [V12L] is higher in protein stability index: 1.38 for the first, 2.06 for the second.

Going from YEHHFHTLHGNVCSFCKRAFPSGH [Y5F] to YEIHYHTLHGNVCSFCKRAFPSGH [H3I], the protein stability index falls from 2.29 to 2.18.

Going from YEHHYHTLHGNVCSFYKRAFPSGH [C16Y] to YEHHYHTLHGNVCSFCTRAFPSGH [K17T], the protein stability index falls from 2.09 to 2.02.

Compared with YEHHYHTLHGNVCSFCKRPFPSGH [A19P], YEHHYHVLHGNVCSFCKRAFPSGH [T7V] is lower in protein stability index: 1.89 for the first, 1.85 for the second.

With YEHHYHTLHGNVCSFCYRAFPSGH [K17Y] the protein stability index was 1.77.

Variants of: B2
Experiment: as above
Conditions: c terminus: a fixed tail appended

First: AILRLLPQGISPVSQHWATWALYN [P1A]
Second: FILRLLPQGISPVSQHWATWALYN [P1F]
The protein stability index of the first is higher: 5.68 for the first, 3.24 for the second.

Compared with HILRLLPQGISPVSQHWATWALYN [P1H], KILRLLPQGISPVSQHWATWALYN [P1K] is higher in protein stability index: 2.39 for the first, 2.4 for the second.

Compared with RILRLLPQGISPVSQHWATWALYN [P1R], SILRLLPQGISPVSQHWATWALYN [P1S] is higher in protein stability index: 2 for the first, 2.07 for the second.

Compared with TILRLLPQGISPVSQHWATWALYN [P1T], PALRLLPQGISPVSQHWATWALYN [I2A] is higher in protein stability index: 2.19 for the first, 2.46 for the second.

Going from PCLRLLPQGISPVSQHWATWALYN [I2C] to PDLRLLPQGISPVSQHWATWALYN [I2D], the protein stability index falls from 2.98 to 2.52.

Compared with PELRLLPQGISPVSQHWATWALYN [I2E], PHLRLLPQGISPVSQHWATWALYN [I2H] is lower in protein stability index: 2.45 for the first, 1.17 for the second.

Compared with PKLRLLPQGISPVSQHWATWALYN [I2K], PNLRLLPQGISPVSQHWATWALYN [I2N] is lower in protein stability index: 2.04 for the first, 1.5 for the second.

First: PPLRLLPQGISPVSQHWATWALYN [I2P]
Second: PQLRLLPQGISPVSQHWATWALYN [I2Q]
The protein stability index of the first is higher: 3.08 for the first, 1.26 for the second.

Compared with PRLRLLPQGISPVSQHWATWALYN [I2R], PTLRLLPQGISPVSQHWATWALYN [I2T] is lower in protein stability index: 3.12 for the first, 2.92 for the second.

First: PIARLLPQGISPVSQHWATWALYN [L3A]
Second: PIDRLLPQGISPVSQHWATWALYN [L3D]
The protein stability index of the first is higher: 3.7 for the first, 3.05 for the second.

Compared with PIERLLPQGISPVSQHWATWALYN [L3E], PIGRLLPQGISPVSQHWATWALYN [L3G] is higher in protein stability index: 1.36 for the first, 1.44 for the second.

Going from PIHRLLPQGISPVSQHWATWALYN [L3H] to PIIRLLPQGISPVSQHWATWALYN [L3I], the protein stability index falls from 1.75 to 1.5.

Going from PINRLLPQGISPVSQHWATWALYN [L3N] to PIPRLLPQGISPVSQHWATWALYN [L3P], the protein stability index falls from 2.54 to 1.04.

Compared with PIQRLLPQGISPVSQHWATWALYN [L3Q], PIRRLLPQGISPVSQHWATWALYN [L3R] is higher in protein stability index: 1.62 for the first, 1.95 for the second.

Compared with PITRLLPQGISPVSQHWATWALYN [L3T], PIVRLLPQGISPVSQHWATWALYN [L3V] is lower in protein stability index: 2.52 for the first, 1.78 for the second.

Compared with PIWRLLPQGISPVSQHWATWALYN [L3W], PIYRLLPQGISPVSQHWATWALYN [L3Y] is higher in protein stability index: 1.02 for the first, 1.06 for the second.

Going from PILFLLPQGISPVSQHWATWALYN [R4F] to PILHLLPQGISPVSQHWATWALYN [R4H], the protein stability index falls from 4.37 to 2.46.

Going from PILILLPQGISPVSQHWATWALYN [R4I] to PILKLLPQGISPVSQHWATWALYN [R4K], the protein stability index rises from 3.46 to 3.47.

Compared with PILLLLPQGISPVSQHWATWALYN [R4L], PILNLLPQGISPVSQHWATWALYN [R4N] is higher in protein stability index: 1.38 for the first, 2.38 for the second.

Compared with PILQLLPQGISPVSQHWATWALYN [R4Q], PILSLLPQGISPVSQHWATWALYN [R4S] is higher in protein stability index: 1.4 for the first, 2.24 for the second.

Going from PILTLLPQGISPVSQHWATWALYN [R4T] to PILVLLPQGISPVSQHWATWALYN [R4V], the protein stability index falls from 3.54 to 2.42.

Compared with PILWLLPQGISPVSQHWATWALYN [R4W], PILYLLPQGISPVSQHWATWALYN [R4Y] is higher in protein stability index: 2.54 for the first, 3.25 for the second.

Compared with PILRALPQGISPVSQHWATWALYN [L5A], PILRCLPQGISPVSQHWATWALYN [L5C] is higher in protein stability index: 1.65 for the first, 3.09 for the second.

Compared with PILRDLPQGISPVSQHWATWALYN [L5D], PILRFLPQGISPVSQHWATWALYN [L5F] is higher in protein stability index: 2.04 for the first, 2.22 for the second.

Going from PILRGLPQGISPVSQHWATWALYN [L5G] to PILRHLPQGISPVSQHWATWALYN [L5H], the protein stability index falls from 3.62 to 2.07.

First: PILRKLPQGISPVSQHWATWALYN [L5K]
Second: PILRMLPQGISPVSQHWATWALYN [L5M]
The protein stability index of the first is lower: 1.25 for the first, 3.4 for the second.

Going from PILRNLPQGISPVSQHWATWALYN [L5N] to PILRQLPQGISPVSQHWATWALYN [L5Q], the protein stability index falls from 1.99 to 1.95.

First: PILRRLPQGISPVSQHWATWALYN [L5R]
Second: PILRTLPQGISPVSQHWATWALYN [L5T]
The protein stability index of the first is higher: 1.84 for the first, 1.14 for the second.

First: PILRVLPQGISPVSQHWATWALYN [L5V]
Second: PILRYLPQGISPVSQHWATWALYN [L5Y]
The protein stability index of the first is higher: 3.75 for the first, 1.77 for the second.

Going from PILRLCPQGISPVSQHWATWALYN [L6C] to PILRLDPQGISPVSQHWATWALYN [L6D], the protein stability index falls from 2.88 to 2.56.

First: PILRLEPQGISPVSQHWATWALYN [L6E]
Second: PILRLFPQGISPVSQHWATWALYN [L6F]
The protein stability index of the first is lower: 2.53 for the first, 3.51 for the second.

Going from PILRLPPQGISPVSQHWATWALYN [L6P] to PILRLQPQGISPVSQHWATWALYN [L6Q], the protein stability index falls from 2.83 to 1.46.

First: PILRLRPQGISPVSQHWATWALYN [L6R]
Second: PILRLYPQGISPVSQHWATWALYN [L6Y]
The protein stability index of the first is higher: 3.26 for the first, 2.65 for the second.

PILRLLAQGISPVSQHWATWALYN [P7A] showed a protein stability index of 2.22.
